Experimental data taken from patent publication US20210008180A1, “FORMULATIONS CONTAINING MUCIN-AFFECTING PROTEASES” (MUCPHARM PTY LTD, priority 2018, published 2021).

Experiments:
HT29 cells = assay: Efficacy of Papain released from DC Beads in Transwell chamber; type: cell-based, human; conditions: 5 mg/ml Papain (500 μg/80 μl beads) loaded beads in Transwell chamber; after 3 hours
Protocol: Subsequently, experiments were conducted to determine the efficacy of the Papain released from the beads. In these experiments, HT29 cells (human colorectal cancer cell line) were seeded in 24 well plates. After 24 h, the plates were treated with 5 mg/ml Papain (500 μg/80 μl beads) loaded beads in a Transwell chamber. After every 3 h, the Transwell chamber containing beads was transferred to a fresh well. This process was continued up to 3 days.

[1] = Release of Papain from DC Beads (300-500 μm), azo-casein assay; type: physicochemical; conditions: 80 μL, loaded from 200 μL 5 mg/mL Papain, 6 hrs, 5 mL PBS pH 6.5
Protocol: 80 μL of DC Beads® (300-500 μm) were taken in a 1.5 mL centrifuge tube and washed twice with distilled water. 200 μL of a 5 mg/mL Papain solution was added and the mixture incubated at room temperature for 6 hrs with gentle agitation. The beads were then washed twice with distilled water and suspended in 5 mL PBS pH 6.5. The first sample of 250 μL was taken at 30 min, and thereafter samples were taken every hour for the next 16 hrs, with 250 μL PBS being replaced each time. The Papain concentration in the samples was measured by azo-casein assay and the cumulative release of Papain from the DC Beads as a function of time is set out in Graph shown below.

B1: Papain: plant-derived mucin-affecting protease enzyme extracted from papaya; loaded into DC Beads 300-500 μm (protein, UniProt P00784 134-345, looked up)
Papain: IPEYVDWRQKGAVTPVKNQGSCGSCWAFSAVVTIEGIIKIRTGNLNEYSEQELLDCDRRSYGCNGGYPWSALQLVAQYGIHYRNTYPYEGVQRYCRSREKGPYAAKTDGVRQVQPYNEGALLYSIANQPVSVVLEAAGKDFQLYRGGIFVGPCGNKVDHAVAAVGYGPNYILIKNSWGTGWGENGYIRIKRGTGNSYGVCGLYTSSFYPVKN
modifications: loaded into DC Beads
notes: plant-derived mucin-affecting protease enzyme extracted from papaya; loaded into DC Beads 300-500 μm
effect of Papain released from the DC Beads on cells (HT29 cells): death of all cells | duration of sustained release of Papain [1]: greater than 16 hours
